The text below walks through data of patent US20240425589A1, “CYTOTOXICITY-INDUCING THERAPEUTIC AGENT FOR USE IN TREATMENT OF CANCER” (CHUGAI SEIYAKU KABUSHIKI KAISHA, priority 2021, published 2024).

The test system of one experiment is CLDN6-LLC1. Kind of experiment: CLDN6-LLC1 syngenic model, combination with anti-mouse PD-L1 antibody. It is filed as in vivo, hCD137 KI/hCD3Tg mice. The conditions noted are these: 17 days after transplantation; CS4135 0.2 mg/kg iv day 6, anti-mouse PD-L1 antibody 10 mg/kg ip days 6, 8, 10, 12, 14, 17. How it is done: In this test, lung cancer cell line LLC1 forced to express claudin 6 (CLDN6) (CLDN6-LLC1) and hCD137 KI/hCD3Tg mice (described in the aforementioned Example 7) were used. The CLDN6-LLC1 cell line was transplanted subcutaneously to the right flank of the mice, and the mice were divided into groups 6 days after transplantation. Individuals whose tumor volume reached 104 to 140 mm^3 were divided into groups. The vehicle and the CS4135 antibody were administered into the mouse tail vein 6 days after transplantation. PBS containing 0.05% Tween-20 was used as the vehicle. The vehicle and anti-mouse PD-L1 antibody (BioX cell) were administered intraperitoneally to the mice 6, 8, 10, 12, 14, and 17 days after transplantation.
Tumor volume was measured 6, 10, 12, 14, and 17 days after transplantation, and the average tumor volume was indicated for each group. The tumor volume was calculated by the following equation: […]
(§1) Tumor Growth Inhibition (TGI) was calculated by the following equation: […]

For a further experiment, the system named is OV-90. The experiment is described as follows: Mouse peritoneal dissemination model. To be noted: 5 mg/kg iv. It counts as in vivo, NOD/ShiJic-scid Jcl mice. How it is done: To evaluate the effect of anti-CLDN6/Dual-Fab tri-specific antibody CS4135 (the same antibody as PPU4135 described in Table 9 of Example 6 described above) against peritoneal metastasis of ovary cancer, the drug efficacy was evaluated using a mouse peritoneal dissemination model. Human ovarian cancer cell line OV-90 (ATCC) was used as target cells. OV-90 cells were transplanted intraperitoneally to NOD/ShiJic-scid Jcl mice at 5×10^6 cells/500 μL/animal. Three days after transplantation, human T cells separated from human PBMC and expansively cultured using Dynabeads Human T-Activator CD3/CD28 (Gibco) were administered intravenously at 3×10^7 cells/400 μL. Furthermore, the vehicle (PBS containing 0.05% Tween-20) or a CS4135 antibody solution at 5 mg/kg was administered intravenously.
After tumor transplantation, the mice were observed every 2 to 7 days, and the conditions of the mice were assessed according to the humane endpoint guideline.

Experiment [1] has as its system GloResponse NFAT-luc2 Jurkat cells with OVCAR3 and H1435 cells. Kind of experiment: NFAT-luc2 Jurkat luciferase assay with chemotherapeutic-treated cancer cells. It counts as cell-based, human. The conditions noted are these: cells treated with cisplatin or carboplatin for 5 days vs untreated. The procedure:
Next, measurement was carried out based on a luciferase assay system using GloResponse NFAT-luc2 Jurkat cells (Promega, J1601) to see if T-cell-activation ability of CS4135 antibody via CD3 binding will change depending on the presence or absence of treatment by a chemotherapeutic agent.
The assay was performed as follows. First, as described above, OVCAR3 and H1435 cells treated with a chemotherapeutic agent for 5 days were detached from a culture flask and plated at 25 μL/well (2×10^4 cells) onto a white flat-bottom 96-well plate (Coster #3917). Next, 1×10^5 Jurkat/NFAT-RE reporter cell line together with the CS4135 antibody at a concentration selected from 0.003, 0.03, 0.3, 3, or 30 nM were added at 25 μL/well. After culturing overnight at 37° C., Bio-Glo reagent (Promega #G7941) was added at 75 μL/well followed by further incubation at room temperature for 10 minutes. Then, luminescence arose from activated Jurkat cells was measured using an EnSpire (PerkinElmer Japan) device. The luminescence magnification of each well was calculated by comparing the wells with the antibody to the wells without the antibody.

In a further experiment the target is T1, human CLDN6 VLP (Homo sapiens, UniProt P56747).
T1 sequence (P56747 1-220): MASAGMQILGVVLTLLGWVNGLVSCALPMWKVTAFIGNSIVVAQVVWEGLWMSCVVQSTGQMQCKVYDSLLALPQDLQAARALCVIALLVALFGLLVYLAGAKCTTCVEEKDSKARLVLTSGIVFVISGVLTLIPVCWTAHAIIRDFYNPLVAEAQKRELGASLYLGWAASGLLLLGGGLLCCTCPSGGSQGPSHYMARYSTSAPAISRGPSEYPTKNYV
Kind of experiment: Biacore T200 SPR affinity to human CLDN6 VLP. It counts as binding. The conditions noted are these: human CLDN6, 25 degree C, pH 7.4. The procedure: The binding affinity of the anti-CLDN6/Dual-Fab tri-specific antibody against human and cynomolgus (cyno) CLDN6 VLP (virus-like particle) at pH 7.4 was determined at 25 degree C. using Biacore T200 instrument (GE Healthcare). Anti-human CD81 (BD Pharmingen) antibody was immobilized onto all flow cells of a C1 sensor chip using amine coupling kit (GE Healthcare). Human and cyno CLDN6 VLP were captured onto the sensor surface by the anti-human CD81 antibody. Each VLP was 5-fold dilution by buffer (20 mM NaPhosphate, 150 mM NaCl, 0.1 mg/mL BSA, 0.005% NaN3, pH 7.4). Tested antibody was prepared in buffer (20 mM NaPhosphate, 150 mM NaCl, 0.1 mg/mL BSA, 0.005% NaN3, pH 7.4). Anti-CLDN6/Dual-Fab tri-specific antibody was injected at 50 and 200 nM, followed by dissociation. Sensor surface was regenerated each cycle with 0.1% SDS and 100 mM H3PO4. […] Binding affinities were determined by processing and fitting the data to 1:1 binding model using Biacore T200 Evaluation software, version 2.0 (GE Healthcare).

In the next experiment the test system is OVCAR3. Kind of experiment: OVCAR3 xenograft in huNOG mice, combination with carboplatin. It is filed as in vivo. The conditions noted are these: 56 days after transplantation; CS4135 0.1 mg/kg iv days 38, 45 (sequential: 48, 55), carboplatin 60 mg/kg ip days 38, 45. The procedure:
In this test, NOG (huNOG) mice (described in the aforementioned Example 13) transplanted with ovarian cancer cell line OVCAR3 and human CD34-positive cells were used. The OVCAR3 cell line was transplanted subcutaneously to the right flank of the mice, and the mice were divided into groups 38 days after transplantation. Individuals whose tumor volume reached 119 to 210 mm^3 were divided into groups. Vehicle 1 and CS4135 were administered into the mouse tail vein 38 and 45 days after transplantation. PBS containing 0.05% Tween-20 was used as Vehicle 1. Vehicle 2 and carboplatin (Bristol Myers Squibb Company) were administered intraperitoneally to the mice 38 and 45 days after transplantation. Physiological saline was used as Vehicle 2.
Tumor volume was measured 38, 42, 45, 48, 52, and 56 days after transplantation, and the average tumor volume was indicated for each group. The tumor volume was calculated by the following equation: […]
as §1

B1: PPU4135: anti-CLDN6/Dual-Fab tri-specific antibody, chains SEQ ID NOs 42, 51, 56, 69; CS4135 same antibody (protein)
chain 1: QVQLVESGGGVVQPGGSLRLSCAASGFTFSSYTMSWVRQAPGQGLEWMGTISSGGGRTYYPDSVKGRFTISRDNSKNTLYLQMNSLRDEDTAVYYCARGDYRYDGFAYWGEGTLVTVSSASTKGPSVFPLAPSSKSTSGGTAALGCLVEDYFPEPVTVSWNSGALTSGVHTFPAVLESSGLYSLSSVVTVPSSSLGTQTYICNVNHKPSNTKVDKRVEPKSCDKTHTCPPCPAPEAAGGPSVFLFPPKPKDTLMISRTPEVTCVVVDVSHEDPEVKFNWYVDGVEVHNAKTKPREEQYASTYRVVSVLTVLHQDWLNGKEYKCKVSNKALPAPIEKTISKAKGQPREPQVYTLPPSREEMTKNQVSLTCLVKGFYPSDIAVEWESNGQPENNYKTTPPVLDSDGSFFLYSKLTVDKSRWQQGNVFSCSVMHEALHNHYTQESLSLSP
chain 2: DIQMTQSPSSLSASVGDRVTITCRASYNIDSYLAWYQQKPGKAPELLIYYSTLLVDGVPDRFSGSRSGTDFTLTISSLQPEDFATYYCQHYYSIPYTFGQGTKVEIERTVAAPSVFIFPPSDEQLKSGTAKVVCLLNNFYPREAKVQWKVDNALQSGNSKESVTEQDSKDSTYSLSSTLTLSKADYEKHKVYACEVTHQGLSSPVTKSFNRGEC
chain 3: QVQLVESGGGLVQPGRSLRLSCAASGFKFSNVWFHWVRQAPGKGLEWVAQIKDYYNAYAAYYAPSVKGRFTISRDDSKNSIYLQMNSLKTEDTAVYYCHYVHYASASTLLPAEGVDAWGQGTTVTVSSASTKGPSVFPLAPSSKSTSGGTAALGCLVKDYFPEPVTVSWNSGALTSGVHTFPAVLKSSGLYSLSSVVTVPSSSLGTQTYICNVNHKPSNTKVDKRVEPKSCDKTHTCPPCPAPEAAGGPSVFLFPPKPKDTLMISRTPEVTCVVVDVSHEDPEVKFNWYVDGVEVHNAKTKPREEQYASTYRVVSVLTVLHQDWLNGKEYKCKVSNKALPAPIEKTISKAKGQPREPQVYTLPPSRKEMTKNQVSLTCLVKGFYPSDIAVEWESNGQPENNYKTTPPVLDSDGSFFLYSKLTVDKSRWQQGNVFSCSVMHEALHNHYTQKSLSLSP
chain 4: DIVMTQSPLSLPVTPGEPASISCQPSQEVVHMNRNTYLHWYQQKPGQAPRLLIYKVSNRFPGVPDRFSGSGSGTDFTLKISRVEAEDVGVYYCAQGTSHPFTFGQGTKLEIKRTVAAPSVFIFPPSDEQLKSGTAEVVCLLNNFYPREAKVQWKVDNALQSGNSEESVTEQDSKDSTYSLSSTLTLSKADYEKHKVYACEVTHQGLSSPVTKSFNRGEC
Turning to B1, the results for the “Tumor growth inhibition: TGI” value with CLDN6-LLC1 and in the experiment with OVCAR3 were 71% and 18%, respectively. The “50% survival rate found” value in the experiment on OV-90 was 71 days after transplantation. The “mice showing aggravated conditions observed from” value in the experiment on OV-90 (vehicle from 48 days) is listed as 57 days after transplantation. The survival rate came to 78% with OV-90 (66 days after transplantation) and 22% in the experiment with OV-90 (80 days after transplantation). For the same molecule, the “T cell activation ability via CD3” value in experiment [1] is recorded as “enhanced”. In the experiment with human CLDN6 VLP, this molecule gave a ka of 217000 M⁻¹ s⁻¹. The same molecule returned a kd with human CLDN6 VLP of 0.000794 s⁻¹.
